Source: the supplement of paper PMC9112550, “Optimization of the antimicrobial peptide Bac7 by deep mutational scanning” (BMC Biology, 2022)

Tested on: Escherichia coli TOP10
Experiment: shrunken log2 fold change of peptide-encoding DNA abundance (4.5 h post-induction vs induction); higher = less antimicrobial activity (less host growth inhibition)
Details: time post-induction: 4.5 h; library: site-saturation at positions 5, 18, 19, 20
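Further: peptides expressed intracellularly from a pBAD plasmid library in pooled LB shake-flask culture, induced with 0.3% L-arabinose, DNA abundance read by NGS, three biological replicates, DESeq2 with apeglm shrinkage.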

| Sequence | shrunken log2 fold change |
| --- | --- |
| RRIRERPPRLPRPRPRPNEKPRP | -0.0183 |
| RRIRLRPPRLPRPRPRPVFEPRP | 0.239 |
| RRIRDRPPRLPRPRPRPNFQPRP | 0.151 |
| RRIRMRPPRLPRPRPRPCVVPRP | -0.0402 |
| RRIRQRPPRLPRPRPRPMWEPRP | 0.00271 |
| RRIRHRPPRLPRPRPRPNHGPRP | 0.0424 |
| RRIRCRPPRLPRPRPRPNRQPRP | -0.216 |
| RRIRKRPPRLPRPRPRPMLAPRP | 0.843 |
| RRIRQRPPRLPRPRPRPCIIPRP | -0.0528 |
| RRIRMRPPRLPRPRPRPEAIPRP | 2.54 |
| RRIRFRPPRLPRPRPRPCQTPRP | -0.414 |
| RRIRNRPPRLPRPRPRPNGDPRP | -0.0698 |
| RRIRERPPRLPRPRPRPRFRPRP | 0.0352 |
| RRIRDRPPRLPRPRPRPWIHPRP | -0.0487 |
| RRIRQRPPRLPRPRPRPRFHPRP | -0.177 |
| RRIRMRPPRLPRPRPRPNCEPRP | 0.247 |
| RRIRIRPPRLPRPRPRPEMFPRP | 0.0821 |
| RRIRPRPPRLPRPRPRPQPGPRP | 0.204 |
| RRIRNRPPRLPRPRPRPNFWPRP | 0.0138 |
| RRIRFRPPRLPRPRPRPRMFPRP | 0.169 |
| RRIRCRPPRLPRPRPRPLQSPRP | 0.113 |
| RRIRDRPPRLPRPRPRPNCDPRP | -0.144 |
| RRIRSRPPRLPRPRPRPCYRPRP | 0.0109 |
| RRIRRRPPRLPRPRPRPRMFPRP | 0.556 |
| RRIRARPPRLPRPRPRPLLEPRP | 0.834 |

| Sequence | shrunken log2 fold change |
| --- | --- |
| RRIRPRPPRLPRPRPRPGREPRP | 2.45 |
| RRIRCRPPRLPRPRPRPGLNPRP | -0.0525 |
| RRIRKRPPRLPRPRPRPQFLPRP | 0.0482 |
| RRIRRRPPRLPRPRPRPCDSPRP | -0.396 |
| RRIRWRPPRLPRPRPRPSGPPRP | 0.114 |
| RRIRSRPPRLPRPRPRPPNKPRP | -0.0165 |
| RRIRTRPPRLPRPRPRPTMFPRP | -0.148 |
| RRIRSRPPRLPRPRPRPNERPRP | -0.395 |
| RRIRWRPPRLPRPRPRPSEYPRP | -0.221 |
| RRIRARPPRLPRPRPRPFEAPRP | 0.564 |
| RRIRDRPPRLPRPRPRPDPNPRP | 0.00812 |
| RRIRGRPPRLPRPRPRPDLQPRP | 1.37 |
| RRIRLRPPRLPRPRPRPPLEPRP | 0.752 |
| RRIRSRPPRLPRPRPRPPFKPRP | 0.0589 |
| RRIRTRPPRLPRPRPRPVTLPRP | -0.37 |
| RRIRMRPPRLPRPRPRPGKEPRP | 0.137 |
| RRIRVRPPRLPRPRPRPFSIPRP | -0.349 |
| RRIRLRPPRLPRPRPRPGQLPRP | -0.0554 |
| RRIRERPPRLPRPRPRPYWEPRP | -0.219 |
| RRIRDRPPRLPRPRPRPGKCPRP | -0.105 |
| RRIRQRPPRLPRPRPRPPRTPRP | 0.669 |
| RRIRGRPPRLPRPRPRPCCNPRP | -0.265 |
| RRIRERPPRLPRPRPRPPLMPRP | 0.0142 |
| RRIRGRPPRLPRPRPRPKKWPRP | -0.00138 |
| RRIRQRPPRLPRPRPRPHRKPRP | -0.227 |

| Sequence | shrunken log2 fold change |
| --- | --- |
| RRIRCRPPRLPRPRPRPLAMPRP | 0.062 |
| RRIRFRPPRLPRPRPRPMNGPRP | -0.0885 |
| RRIRHRPPRLPRPRPRPVRMPRP | 0.246 |
| RRIRDRPPRLPRPRPRPHKGPRP | 0.0993 |
| RRIRTRPPRLPRPRPRPMLRPRP | 0.0141 |
| RRIRERPPRLPRPRPRPGFLPRP | -0.0604 |
| RRIRTRPPRLPRPRPRPNQRPRP | 0.181 |
| RRIRSRPPRLPRPRPRPEGSPRP | 0.223 |
| RRIRGRPPRLPRPRPRPNQCPRP | 0.0163 |
| RRIRNRPPRLPRPRPRPMYHPRP | -0.248 |
| RRIRARPPRLPRPRPRPLQKPRP | 0.586 |
| RRIRLRPPRLPRPRPRPKIGPRP | -0.251 |
| RRIRIRPPRLPRPRPRPGMGPRP | 0.132 |
| RRIRMRPPRLPRPRPRPAICPRP | 0.171 |
| RRIRKRPPRLPRPRPRPQRTPRP | 0.419 |
| RRIRFRPPRLPRPRPRPTWLPRP | 0.299 |
| RRIRQRPPRLPRPRPRPLEFPRP | 0.052 |
| RRIRGRPPRLPRPRPRPIRHPRP | 0.0519 |
| RRIRARPPRLPRPRPRPHRPPRP | -0.0433 |
| RRIRCRPPRLPRPRPRPYHAPRP | -0.585 |
| RRIRIRPPRLPRPRPRPQWFPRP | -0.0117 |
| RRIRGRPPRLPRPRPRPYLIPRP | -0.0775 |
| RRIRDRPPRLPRPRPRPAIMPRP | 0.373 |
| RRIRMRPPRLPRPRPRPALLPRP | 0.727 |
| RRIRERPPRLPRPRPRPRWSPRP | -0.078 |
